The source of these data is patent US20260056186A1 (JIANGSU HENGRUI PHARMACEUTICALS, published 2026).

Like-named read-outs stand apart in the source and are kept apart here.

Experiment [1] deals with T1, BAFF (PeproTech, Cat: 310-13) (UniProt Q9Y275 134-285). Briefly: ELISA, BAFF coated at 1 ug/mL, anti-human Fc-HRP, OD450. The method, then:
The capabilities of fusion proteins B606401, B637302, B746201, and B805201 to bind to BAFF and APRIL were assessed by ELISA as follows:
(§1) BAFF (PeproTech, Cat: 310-13) or ARPIL (Acro Biosystems, Cat: APL-H52D1) was diluted to 1 μg/mL with PBS, and a 96-well plate was coated with the dilution overnight at 4° C. The plate was washed with PBST and blocked with Blocking Buffer (PBST containing 1% BSA) at 37° C. for 1 h. The plate was tapped. The test antibodies were diluted with Blocking Buffer. Incubation was performed at 37° C. for 1.5 h. The plate was washed with PBST. An HRP-mouse anti-human Fc antibody (GenScript, Cat: A01854-200) was diluted with Blocking Buffer. Incubation was performed at 37° C. for 40 min. The plate was washed with PBST. 100 μL of TMB substrate solution (Biopanda, Cat: TMB-S-003) was added, and color development was performed at 37° C. for 3 min. 100 μL of ELISA stop solution (Solarbio, Cat: C1058) was added. OD450 was measured.

The target in experiment [2] is T1, BAFF (PeproTech, Cat: 310-13). Briefly: ELISA, plate coated with BAFF 1 ug/mL, HRP anti-human Fc, OD450. On the procedure:
as §1, with “310-13)” for “310-13) or ARPIL (Acro Biosystems, Cat: APL-H52D1)”
In general terms: An ELISA detects its analyte on a solid surface through an enzyme-linked reagent.

For experiment [3] the target is unchanged. In words: ELISA, BAFF coated at 1 ug/mL, anti-human Fc-HRP, OD450. On the procedure:
as §1, with “The capabilities of B613301, B613302, and B613303, which are fusion proteins of anifrolumab and TACI-BCMA, to bind to BAFF and APRIL were assessed by ELISA as follows: [0548] BAFF (PeproTech,” for “BAFF (PeproTech,”, “96-well plate (Costar, Cat: 3590) was coated” for “96-well plate was coated”
The source holds these as a separate data set.

For experiment [4], the target named is T2, APRIL (Acro Biosystems, Cat: APL-H52D1) (UniProt O75888 115-250, limits assumed).
T2 construct: also called ARPIL
T2 sequence (looked up): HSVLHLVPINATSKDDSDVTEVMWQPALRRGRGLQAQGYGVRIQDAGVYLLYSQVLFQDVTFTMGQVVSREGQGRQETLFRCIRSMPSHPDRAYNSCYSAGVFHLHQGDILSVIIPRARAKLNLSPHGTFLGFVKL
Briefly: ELISA, APRIL coated at 1 ug/mL, anti-human Fc-HRP, OD450. On the procedure:
as §1, with “The capabilities of TACI-BCMA fusion proteins (B575701, B575702, B575703, and B575704) to bind to BAFF and APRIL were assessed by ELISA as follows: BAFF (PeproTech,” for “BAFF (PeproTech,”, “96-well plate (Costar, Cat: 3590) was coated” for “96-well plate was coated”
The capabilities of the 4 fusion proteins to bind to APRIL were all stronger than that of telitacicept, and their EC₅₀ values decreased to ¼ to ⅓ of that of telitacicept.

Experiment [5] has as its target T1, BAFF (PeproTech, Cat: 310-13). Briefly: ELISA, BAFF coated at 1 ug/mL, anti-human Fc-HRP, OD450. On the procedure: as §1, with “The capabilities of TACI-BCMA fusion proteins (B575701, B575702, B575703, and B575704) to bind to BAFF and APRIL were assessed by ELISA as follows: BAFF (PeproTech,” for “BAFF (PeproTech,”, “96-well plate (Costar, Cat: 3590) was coated” for “96-well plate was coated”
The capability of B575702 to bind to BAFF was consistent with that of B575704, and their EC₅₀ values decreased to ¼ of that of telitacicept. The capability of B575701 to bind to BAFF was consistent with that of B575703, and their EC₅₀ values decreased to ½ of that of telitacicept.
This is another data set of the same source.

Experiment [6] deals with T2, APRIL (Acro Biosystems, Cat: APL-H52D1). In words: ELISA, APRIL coated at 1 ug/mL, anti-human Fc-HRP, OD450. On the procedure: as §1, with “The capabilities of B613301, B613302, and B613303, which are fusion proteins of anifrolumab and TACI-BCMA, to bind to BAFF and APRIL were assessed by ELISA as follows: [0548] BAFF (PeproTech,” for “BAFF (PeproTech,”, “96-well plate (Costar, Cat: 3590) was coated” for “96-well plate was coated”
The source holds these as a separate data set.

T1 sequence (Q9Y275 134-285 limits assumed): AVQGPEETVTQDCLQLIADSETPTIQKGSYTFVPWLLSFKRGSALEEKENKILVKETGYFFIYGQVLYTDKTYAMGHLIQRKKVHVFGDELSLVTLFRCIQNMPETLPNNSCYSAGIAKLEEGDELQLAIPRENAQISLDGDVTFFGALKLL

B1: Telitacicept (RCT-18) (Fc fusion)
chain: SRVDQEERFPQGLWTGVAMRSCPEEQYWDPLLGTCMSCKTICNHQSQRTCAAFCRSLSCRKEQGKFYDHLLRDCISCASICGQHPKQCAYFCENKLRSPVNLPPELDKTHTCPPCPAPEAEGAPSVFLFPPKPKDTLMISRTPEVTCVVVDVSHEDPEVKFNWYVDGVEVHNAKTKPREEQYNSTYRVVSVLTVLHQDWLNGKEYKCKVSNKALPSSIEKTISKAKGQPREPQVYTLPPSRDELTKNQVSLTCLVKGFYPSDIAVEWESNGQPENNYKTTPPVLDSDGSFFLYSKLTVDKSRWQQGNVFSCSVMHEALHNHYTQKSLSLSPGK
notes: Positive control TACI-Fc; also called RC18
B1: the concentration giving a half-maximal response (EC50) in experiment [1] was determined as 0.256 nM; in experiment [3], 0.801 nM; in experiment [4], 0.711 nM; in experiment [5], 0.713 nM; in experiment [6], 1.25 nM. Further, the “EC50 (read off the curve)” value in experiment [2] is around 0.2 nM. The Emax in experiment [4] is 2.62; in experiment [5], 2.28 nM (as printed); in experiment [6], 2.5.

Broadly, the EC50 is the concentration at which the effect is half-maximal. Low values mean greater potency, high ones weaker potency. In general, EC50 (read off the curve) refers to the concentration at which the effect is half-maximal. Low readings indicate an effect from little substance, high ones a need for much substance.
